From article PMC2094093 come the findings set out here.

The assay concerns the target Human Hsp90β (human) (UniProt P08238). The assay can be described thus: SEC.

Chain of Human Hsp90β, P08238 1-724 (natural protein; other documents disagree on this pair) (P08238 whole entry): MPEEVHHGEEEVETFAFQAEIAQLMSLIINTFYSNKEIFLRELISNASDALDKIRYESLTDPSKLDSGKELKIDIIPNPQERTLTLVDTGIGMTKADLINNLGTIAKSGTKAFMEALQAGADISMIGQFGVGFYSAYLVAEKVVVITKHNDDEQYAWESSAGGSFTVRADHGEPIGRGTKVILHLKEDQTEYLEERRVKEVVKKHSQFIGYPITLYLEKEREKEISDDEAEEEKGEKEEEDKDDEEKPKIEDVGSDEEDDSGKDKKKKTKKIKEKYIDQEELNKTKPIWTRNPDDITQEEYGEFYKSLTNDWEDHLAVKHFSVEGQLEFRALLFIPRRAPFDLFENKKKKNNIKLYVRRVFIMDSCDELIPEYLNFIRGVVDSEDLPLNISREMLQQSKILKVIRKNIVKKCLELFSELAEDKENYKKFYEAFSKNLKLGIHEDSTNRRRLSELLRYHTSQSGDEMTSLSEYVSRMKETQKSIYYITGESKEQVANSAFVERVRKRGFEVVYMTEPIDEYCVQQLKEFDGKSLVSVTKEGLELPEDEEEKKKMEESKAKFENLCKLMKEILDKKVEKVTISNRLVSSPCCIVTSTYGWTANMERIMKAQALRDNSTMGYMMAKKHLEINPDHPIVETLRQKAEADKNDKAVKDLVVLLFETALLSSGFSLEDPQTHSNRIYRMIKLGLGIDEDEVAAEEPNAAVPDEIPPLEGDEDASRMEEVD

The substance “Human Hsp90β, P08238 1-724 (natural protein; other documents disagree on this pair)” yielded a stoichiometry N of 2.
